Data published in publication PMC2762480.

Columns and labels:
[1] = target: s-dEGFRΔV (Drosophila EGF receptor extracellular region, domains I to IV) (Drosophila melanogaster); experiment: AUC
[2] = target: s-dEGFRΔV/Spitz complex (Drosophila melanogaster) (UniProt Q01083); experiment: AUC

## s-dEGFRΔV (Drosophila EGF receptor extracellular region, domains I to IV) (domain or fragment)
[1]
  Kd: 40 µM

## s-dEGFRΔV/Spitz complex (from UniProt Q01083 29-143)
[2]
  stoichiometry N: 2
